Data as given in US20240101688A1 (MYTHIC THERAPEUTICS, published 2024).
Numbering of substitutions follows the chain as printed. One block for each binder: values may come before it.

What was measured:
[1] = biological target: T1, MET (cMET, Sino Biological Cat. No. 10692-H08H) (UniProt P08581 25-932); assay: BLI: antibody captured on anti-human Fc biosensor, MET in solution; one run at pH 7.4 (black) and one at pH 5.4 (grey); association 0-120 s, then dissociation
T1 construct: Soluble analyte of the BLI assays
Protocol: After allowing for four days of protein expression, cell culture supernatants were collected, quantified by SDS-PAGE analysis, and the pH dependence of the variant was evaluated using biolayer interferometry (BLI) on an Octet RED 96e instrument. Briefly, cell culture supernatants were diluted based on qualitative expression level of the variant determined by visual examination of SDS-PAGE gels, 5 μL of cell culture supernatant was diluted into 195 μL of 1×PBST, pH 7.4 for high expressors, 25 μL of cell culture supernatant was diluted into 175 μL of 1×PBST, pH 7.4 for medium expressors and 100 μL of cell culture supernatant was diluted into 100 μL of 1×PBST, pH 7.4 for low expressors for loading onto the sensor tips. Diluted supernatants were then captured on an anti-human Fc sensor (Forte Bio).

[2] = biological target: T2, MET Proto-Oncogene, Receptor Tyrosine Kinase (MET), on cells (human, UniProt P08581 25-1390); assay: flow cytometry titration on HUVEC cells (8k/cell), pH 7.4; printed as Affinity at pH 7.4; HUVEC cells (8k/cell), pH 7.4
T2 construct: also called cMET; c-Met
Protocol: (§1) Measurement of the affinity of pH-engineered antibodies specific for MET was performed by FACS analysis on cell lines with ranges of cMET expression; Detroit-562 cells (ATCC; CCL-138), NCI-H1975 (ATCC CRL-5908) and HUVEC (C2519A, Lonza). Cell lines selected for this study were obtained from commercial sources and cultured using manufacturer recommended conditions. All cell lines were cultured upon receipt, expanded and cryopreserved at a similar passage number for use in the affinity experiments. Briefly, 1.0×10\hat{ }5 cells that express MET are plated per well in a 96-well plate in 100 μL media. The cells are washed two times with 200 μL of FACS buffer (1×PBS containing 3% Fetal Bovine Serum) at pH 7.4. The purified protein samples are diluted into FACS buffer at pH 7.4, for a titration from 100 nM to 1 pM, and added to the cells and allowed to bind for 2 hours on ice. After incubation with the primary antibodies, cells are washed twice as before, and then 100 μl of secondary goat anti-Human AF488 (IgG Cross-Adsorbed polyclonal secondary antibody), diluted 1:200, is added in FACS buffer pH 7.4, and incubated for 1 hour on ice. The plates are washed twice Binding is read on a flow cytometer (Accuri C6, BD Biosciences). Binding is observed as a shift in the FL1 signal (as a mean fluorescence intensity) versus secondary alone.

[3] = biological target: T2, MET Proto-Oncogene, Receptor Tyrosine …; assay: flow cytometry titration on Detroit-562 cells (125K/cell), pH 7.4; printed as Affinity at pH 7.4
Protocol: as §1

[4] = biological target: T2, MET Proto-Oncogene, Receptor Tyrosine …; assay: affinity on HUVEC against affinity on Detroit-562, flow cytometry, pH 7.4
Protocol: as §1

[5] = biological target: T1, MET (cMET, Sino Biological Cat. No. …); assay: BLI: antibody captured on anti-human Fc biosensor, MET in solution; three runs: pH 7.4 throughout, pH 6.4 throughout, association at pH 7.4 then release at lower pH (key on the sheet: pH 5.4; legend paragraph 84: pH 6.4); association 0-120 s

T2 sequence (P08581 25-1390): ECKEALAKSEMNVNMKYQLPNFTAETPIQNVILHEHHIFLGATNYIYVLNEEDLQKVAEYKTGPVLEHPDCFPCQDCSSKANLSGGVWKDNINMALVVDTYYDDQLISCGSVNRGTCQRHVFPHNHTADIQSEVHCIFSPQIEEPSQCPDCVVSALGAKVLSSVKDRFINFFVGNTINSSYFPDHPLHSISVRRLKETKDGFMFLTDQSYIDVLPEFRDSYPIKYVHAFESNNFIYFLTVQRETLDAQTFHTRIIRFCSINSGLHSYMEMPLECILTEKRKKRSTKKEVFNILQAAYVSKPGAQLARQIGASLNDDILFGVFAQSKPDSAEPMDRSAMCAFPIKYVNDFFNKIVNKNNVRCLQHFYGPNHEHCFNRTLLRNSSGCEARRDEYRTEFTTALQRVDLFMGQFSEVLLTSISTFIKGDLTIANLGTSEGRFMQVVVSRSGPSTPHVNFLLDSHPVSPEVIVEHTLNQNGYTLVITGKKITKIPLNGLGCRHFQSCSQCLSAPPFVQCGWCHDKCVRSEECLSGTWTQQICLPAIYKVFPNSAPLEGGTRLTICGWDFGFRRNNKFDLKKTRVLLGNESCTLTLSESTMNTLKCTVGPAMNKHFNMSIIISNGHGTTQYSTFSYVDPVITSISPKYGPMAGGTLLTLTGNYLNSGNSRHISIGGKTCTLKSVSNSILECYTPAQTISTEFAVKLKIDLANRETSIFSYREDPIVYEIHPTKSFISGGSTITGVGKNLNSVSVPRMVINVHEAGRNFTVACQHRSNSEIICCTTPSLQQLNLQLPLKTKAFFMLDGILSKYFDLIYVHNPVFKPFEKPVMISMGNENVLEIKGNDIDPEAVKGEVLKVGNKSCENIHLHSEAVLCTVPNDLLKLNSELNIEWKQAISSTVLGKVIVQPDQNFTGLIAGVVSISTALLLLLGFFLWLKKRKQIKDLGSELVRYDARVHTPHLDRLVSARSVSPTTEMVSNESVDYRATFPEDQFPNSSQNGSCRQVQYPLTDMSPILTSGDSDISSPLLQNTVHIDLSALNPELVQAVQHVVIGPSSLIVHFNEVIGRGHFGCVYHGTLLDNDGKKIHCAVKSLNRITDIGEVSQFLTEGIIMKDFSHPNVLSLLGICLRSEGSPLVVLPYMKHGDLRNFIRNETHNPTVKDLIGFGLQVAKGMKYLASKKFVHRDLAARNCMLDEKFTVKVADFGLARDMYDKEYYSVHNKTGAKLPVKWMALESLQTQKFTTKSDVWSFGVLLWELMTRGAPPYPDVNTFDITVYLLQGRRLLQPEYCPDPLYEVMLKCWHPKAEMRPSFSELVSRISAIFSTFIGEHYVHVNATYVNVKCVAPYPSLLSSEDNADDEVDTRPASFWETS
T1 sequence (P08581 25-932 limits assumed): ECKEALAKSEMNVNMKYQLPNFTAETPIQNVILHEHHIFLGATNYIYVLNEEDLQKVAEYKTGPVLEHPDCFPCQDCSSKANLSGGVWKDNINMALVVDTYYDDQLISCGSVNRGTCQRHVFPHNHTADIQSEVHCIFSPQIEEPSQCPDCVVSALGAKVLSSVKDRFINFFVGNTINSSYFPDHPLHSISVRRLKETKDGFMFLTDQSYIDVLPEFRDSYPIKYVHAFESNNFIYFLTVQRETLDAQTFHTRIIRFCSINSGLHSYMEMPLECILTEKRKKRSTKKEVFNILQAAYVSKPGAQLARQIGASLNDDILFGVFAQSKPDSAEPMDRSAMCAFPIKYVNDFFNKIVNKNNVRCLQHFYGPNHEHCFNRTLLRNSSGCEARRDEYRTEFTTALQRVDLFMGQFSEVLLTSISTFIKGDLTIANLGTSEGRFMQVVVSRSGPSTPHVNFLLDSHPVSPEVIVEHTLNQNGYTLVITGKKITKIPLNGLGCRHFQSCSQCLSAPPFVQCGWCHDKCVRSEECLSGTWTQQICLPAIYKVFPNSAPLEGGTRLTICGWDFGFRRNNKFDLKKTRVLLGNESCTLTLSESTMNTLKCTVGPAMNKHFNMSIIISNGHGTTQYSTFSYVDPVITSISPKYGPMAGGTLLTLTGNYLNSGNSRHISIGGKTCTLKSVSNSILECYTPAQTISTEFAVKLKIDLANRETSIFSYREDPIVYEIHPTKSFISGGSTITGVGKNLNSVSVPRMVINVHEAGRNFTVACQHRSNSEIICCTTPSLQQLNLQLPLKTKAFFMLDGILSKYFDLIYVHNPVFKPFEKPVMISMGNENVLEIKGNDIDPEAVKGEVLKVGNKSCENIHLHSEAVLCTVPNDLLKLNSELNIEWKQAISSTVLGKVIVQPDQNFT

binding result [1]: binds
B1: MYT4313 (antibody, V domains shown)
VH: QVQLVQSGAEVKKPGASVKVSCKASGYTFTSYWMHWVKQAPGQGLDWIGYIKPSTDNTHYNQKFKDKATLTADKSTSTAYMELSSLRSEDTAVYYCARSYGHYPLMDYWGQGTTVTVSS
VL: QIVLTQSPAILSLSPGERATLSCSASSSVTSNYLYWYQQKPGSSPKLLIYSTSNLASGVPARFSGSGSGTSYTLTISSLEAEDAASYFCHQWSSYPPTFGSGTKLEIKR
notes: P3D12 variant

Kd [2]: > 200000 pM
Kd [3]: 903 pM
Fold Avidity [4]: > 220 fold
B2: MYT4325 (antibody, V domains shown)
VH: B1 VH with D107H
VL: B1 VL
notes: P3D12 variant

binding result [5]: binds
B3: MYT4940 (antibody, V domains shown)
VH: QVQLVQSGAEVKKPGASVKVSCKASGYIFTAYTMHWVRQAPGQGLEWMGWIKPNNGLANYAQKFQGRVTMTRDTSISTAYMELSRLRSDDTAVYYCARHEITTEFDHWGQGTLVTVSS
VL: DIVMTQSPDSLAVSLGERATINCKSSESVDSYANSHLHWYQQKPGQPPKLLIYRASTRESGVPDRFSGSGSGTDFTLTISSLQAEDVAVYYCQQSKEDPLTFGGGTKVEIKR
notes: Telisotuzumab variant
